From US20220119534A1 (DRAGONFLY THERAPEUTICS, published 2022)
Values joined by “and” are separate entries in the source; they are usually repeats but may differ in a detail not shown here. Equal entries are not always repeated. Blank lines part the entries; values can stand above or below the binder they belong to.

How the values were obtained:
[1] = target: T1, Human CLEC12A-His (human, UniProt Q5QGZ9 65-265); assay: SPR Biacore 8K 37 C; TriNKET captured on anti-hFc chip, hCLEC12A-His as analyte; 1:1 fit; after 2 wks 40 C at pH 5.0, n=2
T1 construct: Recombinant soluble protein made in house (Dragonfly Tx); The hCLEC12A spot of the HuProt array is written under this molecule as well; also called hCLEC12A-His; hCLEC12A; not shown: His tag
T1 sequence: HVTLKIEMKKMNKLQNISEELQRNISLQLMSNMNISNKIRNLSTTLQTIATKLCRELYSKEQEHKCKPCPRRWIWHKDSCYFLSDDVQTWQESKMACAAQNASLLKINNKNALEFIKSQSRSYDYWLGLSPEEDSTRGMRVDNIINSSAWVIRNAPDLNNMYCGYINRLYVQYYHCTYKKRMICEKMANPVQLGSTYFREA

[2] = target: T2, mFc-hNKG2D (human, UniProt P26718 73-216); assay: SPR Biacore 8K 37 C; mFc-hNKG2D captured on anti-mFc chip, TriNKET as analyte; steady state fit; after low pH hold, n=3
T2 construct: extracellular domain; Made in house (Dragonfly Tx); the order of tag and ECD follows the name mFc-hNKG2D; also called mFc-tagged human NKG2D; not shown: mouse Fc tag
T2 sequence (looked up): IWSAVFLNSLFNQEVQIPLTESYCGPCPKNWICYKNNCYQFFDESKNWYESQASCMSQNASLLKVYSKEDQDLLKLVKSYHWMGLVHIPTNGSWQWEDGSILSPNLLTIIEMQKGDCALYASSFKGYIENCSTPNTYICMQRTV

[3] = target: T3, Human CD16a V158 (human, UniProt P08637 17-208, biotinylated); assay: SPR; control sample (forced oxidation study)
T3 construct: Bought recombinant receptor; also called hCD16a (V158); hFcγRIIIa V158
T3 sequence (P08637 17-208 F176V limits assumed): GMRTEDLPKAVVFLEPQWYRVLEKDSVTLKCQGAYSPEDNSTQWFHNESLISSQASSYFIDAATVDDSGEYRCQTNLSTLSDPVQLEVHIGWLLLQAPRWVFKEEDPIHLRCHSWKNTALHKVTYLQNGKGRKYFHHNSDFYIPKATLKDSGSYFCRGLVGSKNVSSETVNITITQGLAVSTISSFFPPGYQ

[4] = target: T4, mFc-hNKG2D (human, UniProt P26718 73-216); assay: SPR; control sample (forced oxidation study)
T4 construct: extracellular domain; Recombinant mFc-tagged NKG2D dimer, made in house; also called human NKG2D; not shown: mouse Fc tag
T4 sequence (looked up): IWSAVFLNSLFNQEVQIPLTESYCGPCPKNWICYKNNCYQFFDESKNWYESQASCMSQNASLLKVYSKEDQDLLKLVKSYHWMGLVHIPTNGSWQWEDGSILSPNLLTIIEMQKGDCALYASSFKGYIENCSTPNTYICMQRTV

[5] = target: T5, Human CLEC12A-His (human, UniProt Q5QGZ9 65-265); assay: SPR; control sample (forced oxidation study)
T5 construct: Recombinant soluble protein made in house; also called hCLEC12A-His; hCLEC12A; not shown: His tag
T5 sequence: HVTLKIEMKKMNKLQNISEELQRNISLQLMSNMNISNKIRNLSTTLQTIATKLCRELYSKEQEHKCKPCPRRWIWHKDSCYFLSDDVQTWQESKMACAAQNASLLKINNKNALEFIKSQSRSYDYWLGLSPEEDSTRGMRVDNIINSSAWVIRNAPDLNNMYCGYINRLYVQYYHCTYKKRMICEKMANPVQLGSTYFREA

[6] = target: T6, Cynomolgus CD16 (cynomolgus monkey, UniProt Q8SPW2 17-208, biotinylated); assay: SPR, steady state fit
T6 construct: Bought recombinant receptor; also called cFcγRIII; Cynomolgus FcγRIII
T6 sequence (Q8SPW2 17-208 limits assumed): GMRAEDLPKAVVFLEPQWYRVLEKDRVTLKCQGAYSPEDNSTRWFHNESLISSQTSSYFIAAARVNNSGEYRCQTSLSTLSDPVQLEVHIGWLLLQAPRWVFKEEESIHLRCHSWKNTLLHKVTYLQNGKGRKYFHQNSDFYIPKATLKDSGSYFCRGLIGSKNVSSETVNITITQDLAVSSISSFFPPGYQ

[7] = target: T7, Human CD16a F158 (human, UniProt P08637 17-208, biotinylated); assay: SPR, steady state fit
T7 construct: Bought recombinant receptor; also called hFcγRIIIa F158
T7 sequence (P08637 17-208 limits assumed): as the sequence (P08637 17-208 F176V limits assumed) above, with V160F counted along it

[8] = target: T8, human CLEC12A expressed on cells (human, UniProt Q5QGZ9 1-265); assay: flow cytometry, hCLEC12A+ Ba/F3
T8 construct: Transduced isogenic cells or endogenous expression on AML cells; also called RMA-hCLEC12A; Ba/F3-hCLEC12A
T8 sequence: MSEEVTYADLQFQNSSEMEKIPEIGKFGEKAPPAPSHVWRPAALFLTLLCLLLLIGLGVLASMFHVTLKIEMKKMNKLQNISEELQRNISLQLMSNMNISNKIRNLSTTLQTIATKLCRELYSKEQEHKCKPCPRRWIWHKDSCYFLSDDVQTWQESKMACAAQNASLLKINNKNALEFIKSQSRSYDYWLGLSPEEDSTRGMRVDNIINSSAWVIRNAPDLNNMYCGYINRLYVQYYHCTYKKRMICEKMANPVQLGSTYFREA

[9] = target: T9, recombinant human FcRn (human, UniProt P55899 24-297; P61769 21-119); assay: SPR 25C, pH 6.0, steady state; pH 6.0; second replicate
T9 construct: also called hFcRn

[10] = target: T10, recombinant human CLEC12A-His (human, UniProt Q5QGZ9 65-265); assay: SPR 37C, average
T10 construct: also called hCLEC12A-His; hCLEC12A
T10 sequence: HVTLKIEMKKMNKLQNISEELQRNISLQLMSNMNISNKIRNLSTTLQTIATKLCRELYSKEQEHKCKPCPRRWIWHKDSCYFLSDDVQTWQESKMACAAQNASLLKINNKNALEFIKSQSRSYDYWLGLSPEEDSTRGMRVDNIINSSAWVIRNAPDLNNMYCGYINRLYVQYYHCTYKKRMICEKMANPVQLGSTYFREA

Kd [1]: 1.01 nM
koff [1]: 0.000871 s⁻¹
kon [1]: 865000 M⁻¹ s⁻¹
Kd [2]: 672 nM
B1: F3'-1602 TriNKET (bispecific antibody, human IgG1, kappa)
chain: QLQLQESGPGLVKPSETLSLTCTVSGFSLTNYGLHWIRQPPGKCLEWIGVIWSGGKTDYNPSLKSRVTISKDTSKNQFSLKLSSVQAADTAVYYCAKYDYDDSLDYWGQGTLVTVSSGGGGSGGGGSGGGGSGGGGSDIQMTQSPSSLSASVGDRVTITCHASQNINFWLSWYQQKPGKAPKLLIYEASNLHTGVPSRFSGSGSGTRFTLTISSLQPEDIATYYCQQSHSYPLTFGCGTKLEIKGSDKTHTCPPCPAPELLGGPSVFLFPPKPKDTLMISRTPEVTCVVVDVSHEDPEVKFNWYVDGVEVHNAKTKPREEQYNSTYRVVSVLTVLHQDWLNGKEYKCKVSNKALPAPIEKTISKAKGQPREPRVYTLPPCRDELTKNQVSLTCLVKGFYPSDIAVEWESNGQPENNYKTTPPVLVSDGSFTLYSKLTVDKSRWQQGNVFSCSVMHEALHNHYTQKSLSLSPG
heavy: EVQLVESGGGLVKPGGSLRLSCAASGFTFSSYSMNWVRQAPGKGLEWVSSISSSSSYIYYADSVKGRFTISRDNAKNSLYLQMNSLRAEDTAVYYCARGAPIGAAAGWFDPWGQGTLVTVSSASTKGPSVFPLAPSSKSTSGGTAALGCLVKDYFPEPVTVSWNSGALTSGVHTFPAVLQSSGLYSLSSVVTVPSSSLGTQTYICNVNHKPSNTKVDKKVEPKSCDKTHTCPPCPAPELLGGPSVFLFPPKPKDTLMISRTPEVTCVVVDVSHEDPEVKFNWYVDGVEVHNAKTKPREEQYNSTYRVVSVLTVLHQDWLNGKEYKCKVSNKALPAPIEKTISKAKGQPREPQVCTLPPSRDELTENQVSLTCLVKGFYPSDIAVEWESNGQPENNYKTTPPVLDSDGSFFLYSWLTVDKSRWQQGNVFSCSVMHEALHNHYTQKSLSLSPG
light: DIQMTQSPSSVSASVGDRVTITCRASQGISSWLAWYQQKPGKAPKLLIYAASSLQSGVPSRFSGSGSGTDFTLTISSLQPEDFATYYCQQGVSFPRTFGGGTKVEIKRTVAAPSVFIFPPSDEQLKSGTASVVCLLNNFYPREAKVQWKVDNALQSGNSQESVTEQDSKDSTYSLSSTLTLSKADYEKHKVYACEVTHQGLSSPVTKSFNRGEC
notes: Trispecific F3' format: CLEC12A scFv-Fc paired with NKG2D Fab-Fc; Stressed and control samples of the stability studies are the same molecule; also called AB0237

Kd [3]: 177 nM
koff [3]: 0.0202 s⁻¹
kon [3]: 115000 M⁻¹ s⁻¹
Kd [4]: 598 nM
koff [4]: 0.124 s⁻¹
kon [4]: 208000 M⁻¹ s⁻¹
Kd [5]: 1.68 nM
koff [5]: 0.00129 s⁻¹
kon [5]: 771000 M⁻¹ s⁻¹
Kd [6]: 203 nM and 205 nM and 204 nM
Kd [7]: 773 nM and 634 nM and 693 nM and 620 nM
B2: AB0192 TriNKET (other)
chain: EVQLVESGGGVVQPGGSLRLSCAASGFTFNAFGMHWVRQAPGKCLEWVAFISSGSTSIYYANTVKGRFTISRDNSKNTLYLQMNSLRAEDTAVYYCARDGYPTGGAMDYWGQGTSVTVSSGGGGSGGGGSGGGGSGGGGSDIQMTQSPSSLSASVGDRVTITCKASQDIYNYLSWFQQKPGKAPKPLIYRANILVSGVPSRFSGSGSGQDYTFTISSLQPEDIATYYCLQFDAFPFTFGCGTKLEIKGSDKTHTCPPCPAPELLGGPSVFLFPPKPKDTLMISRTPEVTCVVVDVSHEDPEVKFNWYVDGVEVHNAKTKPREEQYNSTYRVVSVLTVLHQDWLNGKEYKCKVSNKALPAPIEKTISKAKGQPREPRVYTLPPCRDELTKNQVSLTCLVKGFYPSDIAVEWESNGQPENNYKTTPPVLVSDGSFTLYSKLTVDKSRWQQGNVFSCSVMHEALHNHYTQKSLSLSPG
heavy: EVQLVESGGGLVKPGGSLRLSCAASGFTFSSYSMNWVRQAPGKGLEWVSSISSSSSYIYYADSVKGRFTISRDNAKNSLYLQMNSLRAEDTAVYYCARGAPIGAAAGWFDPWGQGTLVTVSSASTKGPSVFPLAPSSKSTSGGTAALGCLVKDYFPEPVTVSWNSGALTSGVHTFPAVLQSSGLYSLSSVVTVPSSSLGTQTYICNVNHKPSNTKVDKKVEPKSCDKTHTCPPCPAPELLGGPSVFLFPPKPKDTLMISRTPEVTCVVVDVSHEDPEVKFNWYVDGVEVHNAKTKPREEQYNSTYRVVSVLTVLHQDWLNGKEYKCKVSNKALPAPIEKTISKAKGQPREPQVCTLPPSRDELTENQVSLTCLVKGFYPSDIAVEWESNGQPENNYKTTPPVLDSDGSFFLYSWLTVDKSRWQQGNVFSCSVMHEALHNHYTQKSLSLSPG
light: DIQMTQSPSSVSASVGDRVTITCRASQGISSWLAWYQQKPGKAPKLLIYAASSLQSGVPSRFSGSGSGTDFTLTISSLQPEDFATYYCQQGVSFPRTFGGGTKVEIKRTVAAPSVFIFPPSDEQLKSGTASVVCLLNNFYPREAKVQWKVDNALQSGNSQESVTEQDSKDSTYSLSSTLTLSKADYEKHKVYACEVTHQGLSSPVTKSFNRGEC
notes: the condition stands under assay; also called AB0192 Lot AB0192-005

fold lower EC50 than F3'-1295 [8]: ~2 fold
Kd [9]: 1100 nM
Kd [10]: 1.2 nM
koff [10]: 0.000933 s⁻¹
kon [10]: 779000 M⁻¹ s⁻¹
B3: F3'-1602 TriNKET (other)
chain: QLQLQESGPGLVKPSETLSLTCTVSGFSLTNYGLHWIRQPPGKCLEWIGVIWSGGKTDYNPSLKSRVTISKDTSKNQFSLKLSSVQAADTAVYYCAKYDYDDSLDYWGQGTLVTVSSGGGGSGGGGSGGGGSGGGGSDIQMTQSPSSLSASVGDRVTITCHASQNINFWLSWYQQKPGKAPKLLIYEASNLHTGVPSRFSGSGSGTRFTLTISSLQPEDIATYYCQQSHSYPLTFGCGTKLEIKGSDKTHTCPPCPAPELLGGPSVFLFPPKPKDTLMISRTPEVTCVVVDVSHEDPEVKFNWYVDGVEVHNAKTKPREEQYNSTYRVVSVLTVLHQDWLNGKEYKCKVSNKALPAPIEKTISKAKGQPREPRVYTLPPCRDELTKNQVSLTCLVKGFYPSDIAVEWESNGQPENNYKTTPPVLVSDGSFTLYSKLTVDKSRWQQGNVFSCSVMHEALHNHYTQKSLSLSPG
heavy: EVQLVESGGGLVKPGGSLRLSCAASGFTFSSYSMNWVRQAPGKGLEWVSSISSSSSYIYYADSVKGRFTISRDNAKNSLYLQMNSLRAEDTAVYYCARGAPIGAAAGWFDPWGQGTLVTVSSASTKGPSVFPLAPSSKSTSGGTAALGCLVKDYFPEPVTVSWNSGALTSGVHTFPAVLQSSGLYSLSSVVTVPSSSLGTQTYICNVNHKPSNTKVDKKVEPKSCDKTHTCPPCPAPELLGGPSVFLFPPKPKDTLMISRTPEVTCVVVDVSHEDPEVKFNWYVDGVEVHNAKTKPREEQYNSTYRVVSVLTVLHQDWLNGKEYKCKVSNKALPAPIEKTISKAKGQPREPQVCTLPPSRDELTENQVSLTCLVKGFYPSDIAVEWESNGQPENNYKTTPPVLDSDGSFFLYSWLTVDKSRWQQGNVFSCSVMHEALHNHYTQKSLSLSPG
light: DIQMTQSPSSVSASVGDRVTITCRASQGISSWLAWYQQKPGKAPKLLIYAASSLQSGVPSRFSGSGSGTDFTLTISSLQPEDFATYYCQQGVSFPRTFGGGTKVEIKRTVAAPSVFIFPPSDEQLKSGTASVVCLLNNFYPREAKVQWKVDNALQSGNSQESVTEQDSKDSTYSLSSTLTLSKADYEKHKVYACEVTHQGLSSPVTKSFNRGEC
notes: CLEC12A scFv-Fc, NKG2D A49MI Fab-Fc, human IgG1 Fc; also called AB0237
